In paper PMC8222801:

Target: CmMYB6_N3 (Chrysanthemum morifolium)
Sequence (main, as listed by the source): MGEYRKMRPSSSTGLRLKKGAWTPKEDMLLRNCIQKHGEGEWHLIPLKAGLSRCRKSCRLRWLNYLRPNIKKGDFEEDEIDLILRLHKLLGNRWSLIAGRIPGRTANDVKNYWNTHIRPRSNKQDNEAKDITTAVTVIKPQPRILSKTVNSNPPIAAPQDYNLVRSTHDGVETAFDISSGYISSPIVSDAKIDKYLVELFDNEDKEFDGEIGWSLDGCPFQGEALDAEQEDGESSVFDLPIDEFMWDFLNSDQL

GUS activity driven by the CmCHS promoter in tobacco leaves co-infiltrated with CmbHLH2^Full and full-length CmMYB6 (untagged effectors): 5 fold
GUS activity driven by the CmDFR promoter in tobacco leaves co-infiltrated with CmbHLH2^Full and full-length CmMYB6 (untagged effectors): 26 fold
Substance: CmbHLH2^Full_L (from UniProt A0A0S3J3I7 1-613) (natural protein)
